From patent publication US8409833B2 (Hokko Chemical Industry Co., Ltd., priority 2003, dated 2013) come the findings set out here.

“Also recorded” adds a separate entry of the source.

Type in all cases: biochemical
Data set [1] in a line: Optimum pH of scyllo-inositol dehydrogenase. The conditions noted are these: 200 mM phosphate buffer (pH 5.0 to 9.0); 90% or more of the maximum activity. Here is the method:
The optimum pH can be confirmed by: mixing 5 μl of a reaction solution (200 mM […] of pH 5.0 to 9.0 containing 2% of NADPH, and 1% of scyllo-inosose) and 5 μl of an enzyme solution; allowing the mixture to react at 36° C. for 30 minutes; adding 500 μl of water immediately after the completion of the reaction; determining the absorbance at 340 nm; and determining a decrease in the absorbance at 340 nm with respect to a blank value of a test solution containing water instead of the enzyme solution. The term “optimum pH” means a pH at which the enzyme has 90% or more of the maximum activity. The enzyme of the present invention can be divided depending on, for example, a range of the optimum pH into groups each having: an optimum pH in an acidic region (optimum pH is pH of 5.5 to 6.5); an optimum pH in a neutral region (optimum pH is pH of 6.5 to 7.5 or 6.5 to 8.5); and an optimum pH in an alkaline region (optimum pH is pH of 7.0 to 8.5 or 7.5 to 9.0).
The optimum pH of the enzymes of the present invention was determined by: mixing 5 μl of a reaction solution (200 mM phosphate buffer (pH 5.0 to 9.0), 2% of NADPH, and 1% of scyllo-inosose) with 5 μl of an enzyme solution; and allowing the mixture to react at 36° C. for 30 min. After the reaction, 500 μl of water was immediately added thereto, and the absorbance at 340 nm was measured. From the blank value of a test solution prepared by using water instead of the enzyme solution, the decrease in the absorbance at 340 nm was measured. The enzyme solution was diluted as required.

Data set [2] in a line: Effects of heavy metal on scyllo-inositol dehydrogenase. Particulars: 2 mM heavy metal in reaction solution, no addition group = 100%. How it is done:
Effects by the heavy metals can be confirmed by: mixing 5 μl of a reaction solution (200 mM Tris buffer of pH 8.0 containing 2% of NADPH, 1% of scyllo-inosose, and 2 mM metal salt) and 5 μl of an enzyme solution; allowing the mixture to react at 36° C. for 30 minutes; adding 500 μl of water immediately after the completion of the reaction; determining the absorbance at 340 nm; and determining a decrease in the absorbance at 340 nm with respect to a blank value of a test solution containing water instead of the enzyme solution. The term “activated” means the case where the enzymatic activity of a fraction added with 1 mM of a heavy metal is 105% or more, preferably 120% or more, with respect to the enzymatic activity of a fraction added with no heavy metal as 100%. On the other hand, the term “inhibited” means the case where the enzymatic activity of the fraction added with 1 mM of a heavy metal is 95% or less, preferably 70% or less, with respect to the enzymatic activity of the fraction added with no heavy metal as 100%.
The effects of heavy metal on the enzymes of the present invention were determined by: mixing 5 μl of a reaction solution (200 mM Tris buffer (pH 8.0), 2% of NADPH, 1% of scyllo-inosose, and 2 mM of a heavy metal) with 5 μl of an enzyme solution; and allowing the mixture to react at 36° C. for 30 min. After the reaction, 500 μl of water was immediately added thereto, and the absorbance at 340 nm was measured. From the blank value of a test solution prepared by using water instead of the enzyme solution, the decrease in the absorbance at 340 nm was measured. The enzyme solution was diluted as required. CaCl2, CoCl2, ZnSO4, MgSO4, SnCl2, NiCl2, and MnSO4 were used as metallic salts. The activity of the no addition group was defined as 100%, and the relative activities were compared. […] Most of the enzymes were inhibited in the presence of Zn^2+ ion, in contrast, the enzyme derived from Bacillus subtilis 168 was activated in the presence of Zn^2+ ion.

Data set [3] in a line: Enzyme reaction product of scyllo-inosose reduction measured by HPLC. The conditions noted are these: for share of scyllo-inositol in the product of scyllo-inosose reduction: 10 mg scyllo-inosose, 40 mg NADPH, 10 U enzyme, 36° C., 4 hours, myo-inositol not detected; for Reduction reaction product: SIS: scyllo-inosose, SI: scyllo-inositol. Here is the method:
Meanwhile, the enzyme reaction product was measured as follows: 10 mg of scyllo-inosose, 40 mg of NADPH, and 10 U of the enzyme were allowed to react in 1.0 ml of 100 mM Tris buffer (pH 8.0) at 36° C. for 4 hours, and a heat treatment was performed at 80° C. for 10 min, followed by cooling. Then, 100 μl of a strong base cation exchange resin, 100 μl of a strong acid anion exchange resin, and 10 mg of activated carbon were added, and the mixture was stirred and centrifuged. Then, the supernatant was diluted 2-fold, and measurement was performed by HPLC (Shodex Asahipak NH2P-50 4E Φ 4.6×250 mm: Shodex) using an RI detector under the condition of a column temperature of 40° C. and a mobile phase flow rate of 1.5 ml (80% acetonitrile). […] Meanwhile, the sequence of the ydgJ gene is shown in SEQ ID NO: 1, and the amino acid sequence corresponding thereto is shown in SEQ ID NO: 2.
Meanwhile, enzyme reaction product was measured as follows: 10 mg of scyllo-inosose, 40 mg of NADPH, and 10 U of the enzyme were allowed to react in 1.0 ml of 100 mM Tris buffer (pH 8.0) at 36° C. for 4 hours, and a heat treatment was performed at 80° C. for 10 min, followed by cooling. Then, 100 μl of a strong base cation exchange resin, 100 μl of a strong acid anion exchange resin, and 10 mg of activated carbon were added, and the mixture was stirred and centrifuged. Then, the supernatant was diluted 2-fold, and measurement was performed by HPLC (Shodex Asahipak NH2P-50 4E Φ 4.6×250 mm: Shodex) using an RI detector under conditions of a column temperature of 40° C. and a mobile phase flow rate of 1.5 ml (80% acetonitrile).

Data set [4] in a line: Km values of scyllo-inositol dehydrogenase for scyllo-inosose (reciprocal plot). Particulars: NADPH, pH 8.0, 36° C. Here is the method:
The determination is carried out such that the Km value is calculated after reciprocal plot according to the general method.
After the reaction, […] of water was immediately added thereto, and the absorbance at 340 nm was measured. From the blank value of a test solution prepared by using water instead of the enzyme solution, the decrease in the absorbance at 340 nm was measured. The enzyme solution was diluted as required. The Km values were calculated by the reciprocal plot.

Data set [5] can be described thus: Substrate specificity of scyllo-inositol dehydrogenase (relative activity of oxidation, absorbance at 545 nm). Particulars: relative to reactivity to scyllo-inositol, NADP^+, pH 8.0, 25° C. Here is the method: Examples of an inositol isomer include scyllo-inositol (SI), myo-inositol (MI), D-chiro-inositol (DCI), L-chiro-inositol (LCI), epi-inositol (EI), muco-inositol (MuI), allo-inositol (AI), and neo-inositol (NI).
The inositol isomers include scyllo-inositol (SI), myo-inositol (MI), D-chiro-inositol (DCI), L-chiro-inositol (LCI), epi-inositol (EI), muco-inositol (MuI), allo-inositol (AI), and neo-inositol (NI).
The reaction rate was calculated from the absorbance increments at the respective times.

A word on the Km: it is the concentration of substrate that gives half-maximal velocity.

B1: Xcc3438 gene: recombinant scyllo-inositol dehydrogenase, Xcc3438 gene product of Xanthomonas campestris pv. campestris ATCC33913, SEQ ID NO: 14 (protein)
chain: MPKPFNLAVVGYGYVGRTFHAPLIASTPGLQLHSVVSSKPQQPQADFREVRVLPDLEAALADPALDAVVIATPNQTHAPMALQALAAGKHVLVDKPFALDAAQARTVVDAAAEAGKIVSVFQNRRWDADFLTVRRLIEDGQLGEVVEFHSHFDRYRPQVRDRWRESDIPGAGLWYDLGPHLLDQALQLFGMPQAISADLQRQRTQARSDDYFNVVLRYPRLRVILHAGSLVADGSLRFAVHGTRGSYLKHGADTQEDQLRAGRRPGTAGWGMDPLPGTLTRVDDEGRVHTHQPDGVPGDYRHCYAAFRDAMAGTAPPPVSAADAVRLMELLELAQRGAALGQVLWLEGNSSD
modifications: Xanthomonas campestris pv. campestris
Regarding B1, in data set [1], the “Optimum pH” value is “pH 6.5-7.5”. Besides, in data set [2], the “Heavy metal effects: activation” value was “Co” and the “Heavy metal effects: strong inhibition” value is listed as “Sn, Zn”. In data set [3], the “share of scyllo-inositol in the product of scyllo-inosose reduction” value (from here on “share … of scyllo-inosose reduction”) is on record as 100% and the Reduction reaction product entry is on record as “Only SIS → SI”. Moreover, in data set [4], the Km was 9.1 mM. Besides, in data set [5], the “Substrate specific Relative activity (70% or more)” value is “SI, DCI” and the “Substrate specific Relative activity (less than 20%)” value is listed as “EI, LCI, MuI,; also recorded: AI, NI”.

B2: BG14057 gene: recombinant scyllo-inositol dehydrogenase, BG14057 gene product of Bacillus subtilis 168 ATCC23857, SEQ ID NO: 8 (protein, listed as Bacillus subtilis)
chain: MITLLKGRRKVDTIKVGILGYGLSGSVFHGPLLDVLDEYQISKIMTSRTEEVKRDFPDAEVVHELEEITNDPAIELVIVTTPSGLHYEHTMACIQAGKHVVMEKPMTATAEEGETLKRAADEKGVLLSVYHNRRWDNDFLTIKKLISEGSLEDINTYQVSYNRYRPEVQARWREKEGTATGTLYDLGSHIIDQTLHLFGMPKAVTANVMAQRENAETVDYFHLTLDYGKLQAILYGGSIVPANGPRYQIHGKDSSFIKYGIDGQEDALRAGRKPEDDSWGADVPEFYGKLTTIRGSDKKTETIPSVNGSYLTYYRKIAESIREGAALPVTAEEGINVIRIIEAAMESSKEKRTIMLEH
For the molecule B2, in data set [1], the “Optimum pH” value is “pH 7.0-8.5”. Also, in data set [2], the “Heavy metal effects: activation” value is on record as “Co, Mn, Zn” and the “Heavy metal effects: strong inhibition” value is given as “Sn”. In addition, the “Heavy metal effects: activation” value in data set [2] (listed as enzyme derived from Bacillus subtilis 168) is on record as “Zn^2+ ion”. Moreover, in data set [3], the “share … of scyllo-inosose reduction” value was determined as 100% and the Reduction reaction product result is recorded as “Only SIS → SI”. Besides, in data set [4], the Km was 3.5 mM. In data set [5], the “Substrate specific Relative activity (20 to 70%)” value is listed as “DCI, EI, AI, NI”; the “Substrate specific Relative activity (70% or more)” value is reported as “SI, MI”; the “Substrate specific Relative activity (less than 20%)” value is “LCI, MuI”.

B3: AB10121 Atu4375 gene: recombinant scyllo-inositol dehydrogenase, Atu4375 gene product of Agrobacterium sp. AB10121 FERM P-17383, SEQ ID NO: 10 (protein, listed as Agrobacterium sp.)
chain: MSSAPKKFDSRRIRLGMVGGGQGAFIGAVHRIAARLDDRYELVAGALSSDPARAAASATLLGIAPERSYASFEEMAAAEAGRDDGIEAVAIVTPNHLHFAPSKAFLEAGIHVICDKPVTATLEEAKALAEIVRASDSLFVLTHNYTGYAMLRQMRQMVADGAIGKLRHVQAEYAQDWLTEAVEKTGAKGAEWRTDPSRSGAGGAIGDIGTHAFNAAAFVTGEIPKSLYADLTSFVPGRQLDDSANILLRYESGAKGMLWASQIAVGNENALSLRVYGEKGGLEWHHRVPDELWFTPYGEPKRLITRNGAGAGAAANRVSRVPSGHPEGYLEGFATIYREAADAIIAKREGKAAAGEVIYPGMEDGLAGLAFIDAAVRSSQTSTWINIDI
For B3, the “Optimum pH” value in data set [1] is listed as “pH 6.5-8.5”. Moreover, in data set [2], the “Heavy metal effects: activation” value is “Co, Mn” and the “Heavy metal effects: strong inhibition” value is “Sn, Zn”. Further, in data set [3], the “share … of scyllo-inosose reduction” value turned out to be 100% and the Reduction reaction product result is recorded as “Only SIS → SI”. The Km in data set [4] came out at 9.8 mM. Moreover, in data set [5], the “Substrate specific Relative activity (20 to 70%)” value is recorded as “LCI, MuI”; the “Substrate specific Relative activity (70% or more)” value is “SI, MI, DCI, EI”; the “Substrate specific Relative activity (less than 20%)” value is “AI, NI”.
